Experimental data: the supplement of paper PMC7877785
± gives the uncertainty stated by the source.

Assay: self-splicing fitness, log relative to wild type (ln ratio); higher = more splicing; Tetrahymena group I intron in knt gene, E. coli kanamycin selection, DiMSum; sequences stand for … in CUCUCU…GGAGGGAAAAGUUAUCAGGCAUGCACCUGGUAGCUAGUCUUUAAACCAAUAGAUUGCAUCGGUUUAAAAGGCAAGACCGUCAAAUUGCGGGAAAGGGGUCAACAGCCGUUCAGUACCAAGUCUCAGGGGAAACUUUGAGAUGGCCUUGCAAAGGGUAUGGUAAUAAGCUGACGGACAUGGUCCUAACCACGCAGCCAAGUCCUAAGUCAACAGAUCUUCUGUUGAUAUGGAUGCAGUUCACAGACUAAAUGUCGGUCGGGGAAGAUGUAUUCUUCUCAUAAGAUAUAGUCGGACCUCUCCUUAAUGGGAGCUAGCGGAUGAAGUGAUGCAACACUGGAGCCGCUGGGAACUAAUUUGUAUGCGAAAGUAUAUUGAUUAGUUUUGGAGUACUCGUGGUCG
How it was run: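 Colonies from six replicate transformations of E. coli BL21(DE3) were pooled and amplicon-sequenced on an Illumina HiSeq 2500. The library placed an intron with all eight P1ex-region nucleotides randomised inside the knt kanamycin-resistance gene on pET-22b(+), and cells grew overnight at 37°C or 30°C on LB agar with or without 25 μg/mL kanamycin (plus 100 μg/mL carbenicillin, 50 μM IPTG, 0.2% rhamnose). Fitness is the DiMSum error-weighted combination of wild-type-normalised replicate fold changes, kanamycin versus none.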

## GUCGAGCAAUAUUACGGAGA
30 °C
  self-splicing fitness (ln): -2.84 ± 0.23
37 °C
  self-splicing fitness (ln): -2.47 ± 0.31

## AGGCAGCAAUAUUACGGUUC
30 °C
  self-splicing fitness (ln): -1.43 ± 0.14
37 °C
  self-splicing fitness (ln): -1.8 ± 0.19

## CGUGAGCAAUAUUACGUCAU
30 °C
  self-splicing fitness (ln): -2.46 ± 0.21
37 °C
  self-splicing fitness (ln): -2.81 ± 0.24

## AUCGAGCAAUAUUACGCCUG
30 °C
  self-splicing fitness (ln): -3.45 ± 0.36
37 °C
  self-splicing fitness (ln): -1.78 ± 0.22

## CGUUAGCAAUAUUACGAUCA
30 °C
  self-splicing fitness (ln): -0.373 ± 0.16
37 °C
  self-splicing fitness (ln): 0.245 ± 0.17

## GAGGAGCAAUAUUACGGAGG
37 °C
  self-splicing fitness (ln): -2.2 ± 0.24

## CACAAGCAAUAUUACGUCGA
30 °C
  self-splicing fitness (ln): -2.62 ± 0.078
37 °C
  self-splicing fitness (ln): -0.984 ± 0.073

## UCGCAGCAAUAUUACGGGCG
30 °C
  self-splicing fitness (ln): -2.7 ± 0.13
37 °C
  self-splicing fitness (ln): -0.856 ± 0.12

## GUACAGCAAUAUUACGACUA
30 °C
  self-splicing fitness (ln): -1.16 ± 0.13
37 °C
  self-splicing fitness (ln): -0.637 ± 0.12

## UGCUAGCAAUAUUACGCGGU
30 °C
  self-splicing fitness (ln): -4.3 ± 0.42
37 °C
  self-splicing fitness (ln): -2.36 ± 0.31

## UAUCAGCAAUAUUACGUCCC
30 °C
  self-splicing fitness (ln): -2.83 ± 0.34
37 °C
  self-splicing fitness (ln): 0.683 ± 0.26

## UUUAAGCAAUAUUACGUAAA
30 °C
  self-splicing fitness (ln): -0.434 ± 0.1
37 °C
  self-splicing fitness (ln): 0.519 ± 0.16

## AAGUAGCAAUAUUACGUCUG
30 °C
  self-splicing fitness (ln): -0.515 ± 0.086
37 °C
  self-splicing fitness (ln): 0.168 ± 0.11

## CCUGAGCAAUAUUACGUAUG
30 °C
  self-splicing fitness (ln): -2.38 ± 0.11
37 °C
  self-splicing fitness (ln): -1.56 ± 0.11

## AGGGAGCAAUAUUACGCCGU
30 °C
  self-splicing fitness (ln): -2.11 ± 0.42
37 °C
  self-splicing fitness (ln): -0.233 ± 0.39

## AUAGAGCAAUAUUACGCUGG
30 °C
  self-splicing fitness (ln): -1.97 ± 0.14
37 °C
  self-splicing fitness (ln): -1.62 ± 0.2

## UGGCAGCAAUAUUACGGAUC
30 °C
  self-splicing fitness (ln): -2.22 ± 0.24
37 °C
  self-splicing fitness (ln): -1.99 ± 0.46

## GCGGAGCAAUAUUACGGAAG
37 °C
  self-splicing fitness (ln): -2.11 ± 0.36

## UCCAAGCAAUAUUACGCGUC
30 °C
  self-splicing fitness (ln): -3.21 ± 0.1
37 °C
  self-splicing fitness (ln): -2.63 ± 0.11

## UCGUAGCAAUAUUACGAACA
30 °C
  self-splicing fitness (ln): -2.55 ± 0.28
37 °C
  self-splicing fitness (ln): -1.82 ± 0.2

## GCCAAGCAAUAUUACGACAU
30 °C
  self-splicing fitness (ln): -2.357 ± 0.015
37 °C
  self-splicing fitness (ln): -1.37 ± 0.033

## AUCUAGCAAUAUUACGCUGA
30 °C
  self-splicing fitness (ln): -1.71 ± 0.18
37 °C
  self-splicing fitness (ln): -0.501 ± 0.13

## CGAGAGCAAUAUUACGUGAG
30 °C
  self-splicing fitness (ln): -1.51 ± 0.18
37 °C
  self-splicing fitness (ln): -1.75 ± 0.48

## UUUGAGCAAUAUUACGCAGC
30 °C
  self-splicing fitness (ln): -3.5 ± 0.28
37 °C
  self-splicing fitness (ln): -2.43 ± 0.21

## CGCGAGCAAUAUUACGUACU
30 °C
  self-splicing fitness (ln): -3.32 ± 0.28
37 °C
  self-splicing fitness (ln): -2.3 ± 0.31

## AUCAAGCAAUAUUACGCUGC
30 °C
  self-splicing fitness (ln): -2.4 ± 0.41
37 °C
  self-splicing fitness (ln): -0.934 ± 0.33

## UCAAAGCAAUAUUACGCUUG
30 °C
  self-splicing fitness (ln): -2.27 ± 0.14
37 °C
  self-splicing fitness (ln): -2.58 ± 0.26

## ACGGAGCAAUAUUACGAUAG
30 °C
  self-splicing fitness (ln): -3.57 ± 0.29
37 °C
  self-splicing fitness (ln): -3.09 ± 0.34

## CCCUAGCAAUAUUACGGCAG
30 °C
  self-splicing fitness (ln): -3.47 ± 0.22
37 °C
  self-splicing fitness (ln): -2.75 ± 0.22

## GGACAGCAAUAUUACGAGUC
30 °C
  self-splicing fitness (ln): -4.31 ± 0.2
37 °C
  self-splicing fitness (ln): -2.75 ± 0.15

## UAGGAGCAAUAUUACGAUGC
30 °C
  self-splicing fitness (ln): -1.78 ± 0.23
37 °C
  self-splicing fitness (ln): -1.01 ± 0.17

## GAUUAGCAAUAUUACGGGAA
30 °C
  self-splicing fitness (ln): -1.67 ± 0.26
37 °C
  self-splicing fitness (ln): -3.27 ± 0.43

## CCAUAGCAAUAUUACGUCCU
30 °C
  self-splicing fitness (ln): -2.86 ± 0.23
37 °C
  self-splicing fitness (ln): -2.64 ± 0.48

## GAAGAGCAAUAUUACGCUGC
37 °C
  self-splicing fitness (ln): -2.63 ± 0.48

## AAAUAGCAAUAUUACGGCGC
30 °C
  self-splicing fitness (ln): -1.11 ± 0.15
37 °C
  self-splicing fitness (ln): -0.73 ± 0.15

## CGGGAGCAAUAUUACGAGGG
30 °C
  self-splicing fitness (ln): -2.28 ± 0.29

## AAAGAGCAAUAUUACGGACA
30 °C
  self-splicing fitness (ln): -2.68 ± 0.3
37 °C
  self-splicing fitness (ln): -1.81 ± 0.32

## AUUCAGCAAUAUUACGCAGC
30 °C
  self-splicing fitness (ln): -1.82 ± 0.38
37 °C
  self-splicing fitness (ln): -1.15 ± 0.26

## GAGGAGCAAUAUUACGUACC
30 °C
  self-splicing fitness (ln): -0.85 ± 0.31
37 °C
  self-splicing fitness (ln): -0.663 ± 0.27
